{"source": "patent US20180327506A1", "about": "(AbbVie / Abbott, published 2018)", "binders": {"B1": {"name": "SC93.219 (antibody, IgG2b, V domains shown)", "VH": "EVQLVESGGGLVQPGGSRKLSCAASGFTFSSYGMHWVRQAPEKGLEWVAYISSSGGTIYYADTVKGRFTISRDNAKNTLFLQMTSLRSEDTAMYYCARRGYGNSFDYWGQGTTLTVSS", "VL": "QIVLTQSPAIMSASPGEKVTMTCSASSSVSYMYWYQQKPGSSPRLLIYDTSNLASGVPVRFSGSGSGTSYSLTISRMEAEDAATYYCQQWSSYPPFGGGTKLEIK", "notes": "murine, IgG2b"}, "B2": {"name": "SC93.221 (antibody, IgG1, V domains shown)", "VH": "QIQLVQSGSELKKPGETVKISCKASGYTFTDYSINWVKQAPGKGFKWMGWINTYTGVPTYADDFKGRFAFSLETSATTAYLQINNLKNEDTATYFCARARYDGYYGRFDYWGQGTTLTVSS", "VL": "DFLMTQTPLSLPVSLGDQASISCRSSQSIVHSNGDTYLEWFLQKPGQSPKLLIYKVSNRFSGVPDRFSGSGSGTDFTLKISRVEAEDLGVYYCFQGSHVPFTFGSGTKLEIK", "notes": "murine, IgG1"}, "B3": {"name": "SC93.267 (antibody, V domains shown)", "VH": "EVQLQQSGPELVKPGASVRMSCKASGYTFTDYNMYWVKQSLGKSLEWIGYIYPNTGGATYNQKFKGKATLTVNKSSSTAFMELRSLTSEDSAVYYCGRGGLGPFAYWGQGTLVTVSA", "VL": "DIQMTQSPSSLSASLGGKVTITCRASQDINKFISWYQHRPGKGPRLLIHYASTLQPGIPSRFSGSGSGRDYSFSISNLEPEDIATYYCLQYDNLWTFGGGTKLEIR", "notes": "Murine hybridoma antibody with a kappa light chain; also called anti-hEMR2 antibody SC93.267"}}, "key": {"[1]": {"molecular_target": "T1, full-length mature cynomolgus EMR2 (residues Q24-N816) with N-terminal aspartic acid/lysine epitope tag, … (cynomolgus monkey (Macaca fascicularis), UniProt A0A2K5WL23 21-816)", "T1 sequence": "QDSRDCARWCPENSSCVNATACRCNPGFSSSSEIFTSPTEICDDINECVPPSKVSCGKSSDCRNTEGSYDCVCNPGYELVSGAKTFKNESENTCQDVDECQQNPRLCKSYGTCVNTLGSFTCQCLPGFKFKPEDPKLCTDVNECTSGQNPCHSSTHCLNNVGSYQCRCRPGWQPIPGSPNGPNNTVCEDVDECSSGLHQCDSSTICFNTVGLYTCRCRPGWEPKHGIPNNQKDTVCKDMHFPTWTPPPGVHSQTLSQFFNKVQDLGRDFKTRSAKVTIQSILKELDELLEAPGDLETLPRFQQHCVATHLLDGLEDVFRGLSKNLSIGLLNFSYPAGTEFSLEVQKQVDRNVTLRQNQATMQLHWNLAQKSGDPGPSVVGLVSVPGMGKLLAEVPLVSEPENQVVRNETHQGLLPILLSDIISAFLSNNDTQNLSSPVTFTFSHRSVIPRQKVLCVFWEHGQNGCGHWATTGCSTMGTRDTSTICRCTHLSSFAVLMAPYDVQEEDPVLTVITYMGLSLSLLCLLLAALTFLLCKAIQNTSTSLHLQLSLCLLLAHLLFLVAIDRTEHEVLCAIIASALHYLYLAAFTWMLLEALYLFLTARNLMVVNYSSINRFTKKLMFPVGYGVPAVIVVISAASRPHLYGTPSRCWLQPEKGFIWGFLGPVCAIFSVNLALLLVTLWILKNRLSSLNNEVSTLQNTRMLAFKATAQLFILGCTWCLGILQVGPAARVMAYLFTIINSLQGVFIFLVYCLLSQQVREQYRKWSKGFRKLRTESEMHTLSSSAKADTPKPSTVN", "test": "cell-based or functional assay"}, "[2]": {"molecular_target": "T2, full-length mature human EMR2 (residues Q24-N823) with N-terminal aspartic acid/lysine epitope tag, … (human, UniProt Q9UHX3 24-823)", "T2 sequence": "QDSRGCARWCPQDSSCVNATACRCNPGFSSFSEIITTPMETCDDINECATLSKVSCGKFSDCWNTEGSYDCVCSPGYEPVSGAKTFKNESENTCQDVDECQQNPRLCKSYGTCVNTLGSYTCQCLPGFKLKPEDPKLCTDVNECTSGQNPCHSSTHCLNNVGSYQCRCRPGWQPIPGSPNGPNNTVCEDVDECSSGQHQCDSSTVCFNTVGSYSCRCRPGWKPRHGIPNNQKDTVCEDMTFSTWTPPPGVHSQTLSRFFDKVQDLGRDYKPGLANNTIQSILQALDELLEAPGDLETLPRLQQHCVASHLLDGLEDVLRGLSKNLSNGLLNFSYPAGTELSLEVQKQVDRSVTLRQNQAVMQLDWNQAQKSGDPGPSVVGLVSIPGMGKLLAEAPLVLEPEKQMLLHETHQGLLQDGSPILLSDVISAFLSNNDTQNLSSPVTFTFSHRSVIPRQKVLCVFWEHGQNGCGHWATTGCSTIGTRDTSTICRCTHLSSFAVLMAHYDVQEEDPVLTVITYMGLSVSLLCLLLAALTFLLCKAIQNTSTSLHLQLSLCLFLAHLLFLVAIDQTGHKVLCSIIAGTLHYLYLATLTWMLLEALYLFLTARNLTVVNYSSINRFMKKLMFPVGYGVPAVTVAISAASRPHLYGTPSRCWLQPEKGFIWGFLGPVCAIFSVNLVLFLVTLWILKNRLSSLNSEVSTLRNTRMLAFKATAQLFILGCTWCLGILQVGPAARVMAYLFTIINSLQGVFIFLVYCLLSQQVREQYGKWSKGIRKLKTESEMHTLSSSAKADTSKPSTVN", "test": "cell-based or functional assay"}, "[3]": {"molecular_target": "T3, full-length mature human CD97 (residues Q21-I845) with N-terminal aspartic acid/lysine epitope tag, … (human, UniProt P48960 21-835)", "T3 sequence (looked up)": "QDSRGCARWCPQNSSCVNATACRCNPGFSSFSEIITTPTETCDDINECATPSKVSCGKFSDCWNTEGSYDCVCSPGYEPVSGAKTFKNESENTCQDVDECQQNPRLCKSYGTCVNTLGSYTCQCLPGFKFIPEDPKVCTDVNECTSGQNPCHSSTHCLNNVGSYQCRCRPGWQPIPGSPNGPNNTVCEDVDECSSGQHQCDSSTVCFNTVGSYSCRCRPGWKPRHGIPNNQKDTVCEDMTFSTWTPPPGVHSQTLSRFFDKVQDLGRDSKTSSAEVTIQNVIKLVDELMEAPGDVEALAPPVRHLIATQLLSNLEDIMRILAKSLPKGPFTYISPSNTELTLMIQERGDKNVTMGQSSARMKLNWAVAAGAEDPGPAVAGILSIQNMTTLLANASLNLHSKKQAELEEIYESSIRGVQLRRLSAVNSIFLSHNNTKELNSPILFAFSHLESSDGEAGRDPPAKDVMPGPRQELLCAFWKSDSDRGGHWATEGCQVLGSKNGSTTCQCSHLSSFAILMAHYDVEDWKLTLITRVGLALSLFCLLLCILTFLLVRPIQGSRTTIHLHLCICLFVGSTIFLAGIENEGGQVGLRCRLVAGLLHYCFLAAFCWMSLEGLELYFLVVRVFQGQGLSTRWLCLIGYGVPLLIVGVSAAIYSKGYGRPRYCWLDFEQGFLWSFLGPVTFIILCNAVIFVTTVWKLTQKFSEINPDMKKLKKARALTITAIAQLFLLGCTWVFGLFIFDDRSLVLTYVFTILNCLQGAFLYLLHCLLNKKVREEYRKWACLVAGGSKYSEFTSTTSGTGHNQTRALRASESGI", "test": "cell-based or functional assay"}, "[4]": {"molecular_target": "T1, full-length mature cynomolgus EMR2 …", "test": "flow cytometry on transduced HEK293T; 293 naive MFI 95.6", "experimental": "(§1) The exemplary antibodies were also tested using flow cytometry to determine their ability to associate with hEMR2, cEMR2 and CD97 expressed on the surface of cells."}, "[5]": {"molecular_target": "T2, full-length mature human EMR2 (residues …)", "test": "flow cytometry on transduced HEK293T; 293 naive MFI 95.6", "experimental": "as §1"}, "[6]": {"molecular_target": "T3, full-length mature human CD97 (residues …)", "test": "flow cytometry on transduced HEK293T; 293 naive MFI 95.6", "experimental": "as §1"}, "[7]": {"molecular_target": "T1, full-length mature cynomolgus EMR2 …", "test": "flow cytometry on transduced HEK293T; 293 naive MFI 97.2", "experimental": "as §1"}, "[8]": {"molecular_target": "T2, full-length mature human EMR2 (residues …)", "test": "flow cytometry on transduced HEK293T; 293 naive MFI 97.2", "experimental": "as §1"}, "[9]": {"molecular_target": "T3, full-length mature human CD97 (residues …)", "test": "flow cytometry on transduced HEK293T; 293 naive MFI 97.2", "experimental": "as §1"}, "[10]": {"molecular_target": "T4, human EMR2 as naturally expressed on primary and PDX tumor cells, blood and bone marrow cells and hematologic … (human, UniProt Q9UHX3 24-823)", "T4 construct": "Endogenous protein; also called hEMR2; CD312", "T4 sequence": "T2 sequence", "test": "flow cytometry on AML23p2 PDX cells, against isotype control", "experimental": "(§2) AML PDX samples were harvested by extracting both femora and tibiae from a mouse. After removing any attached muscle tissue the bones were combined and grinded up using a mortar and pistil to release the bone marrow from the rest of the bone. Cell suspensions were harvested and red blood cells lysed by exposure to a hypotonic ammonium-chloride-potassium solution (ACK). After 5 min incubation on ice the red blood cell lysis was stopped by adding 2% fetal bovine serum in PBS buffer (FSM), cells harvested by centrifugation and any tissue debris filtered out using a nylon mesh. Primary human AML samples were obtained cryopreserved as Ficol isolated mononuclear cells, thawed, washed once in FSM and used for analysis. Single cell suspensions were incubated with 4′,6-diamidino-2-phenylindole (DAPI) to detect dead cells, anti-human CD45 and CD33 to identify human leukemic cells. […] In order to partition bulk AML leukemic populations into NTG and CSC subpopulations, the PDX tumor cells were further incubated with anti-human CD34 and CD38 or candidate AML CSC markers."}, "[11]": {"molecular_target": "T4, human EMR2 as naturally expressed on …", "test": "flow cytometry on AML20p4 PDX cells, against isotype control", "experimental": "as §2"}, "[12]": {"molecular_target": "T1, full-length mature cynomolgus EMR2 …", "test": "cell-based or functional assay", "remark": "listed apart in the source"}, "[13]": {"molecular_target": "T2, full-length mature human EMR2 (residues …)", "test": "cell-based or functional assay", "remark": "listed apart in the source"}, "[14]": {"molecular_target": "T3, full-length mature human CD97 (residues …)", "test": "cell-based or functional assay", "remark": "listed apart in the source"}, "[15]": {"molecular_target": "T4, human EMR2 as naturally expressed on …", "test": "flow cytometry on AML37p0 cells, against isotype control", "experimental": "as §2"}, "[16]": {"molecular_target": "T4, human EMR2 as naturally expressed on …", "test": "flow cytometry on AML40p0 cells, against isotype control", "experimental": "AML PDX samples were harvested by extracting both femora and tibiae from a mouse. After removing any attached muscle tissue the bones were combined and grinded up using a mortar and pistil to release the bone marrow from the rest of the bone. Cell suspensions were harvested and red blood cells lysed by exposure to a hypotonic ammonium-chloride-potassium solution (ACK). After 5 min incubation on ice the red blood cell lysis was stopped by adding 2% fetal bovine serum in PBS buffer (FSM), cells harvested by centrifugation and any tissue debris filtered out using a nylon mesh. Primary human AML samples were obtained cryopreserved as Ficol isolated mononuclear cells, thawed, washed once in FSM and used for analysis. Single cell suspensions were incubated with 4′,6-diamidino-2-phenylindole (DAPI) to detect dead cells, anti-human CD45 and CD33 to identify human leukemic cells. The resulting single cell suspensions comprised a bulk sample of tumor and non-tumor cells including both NTG cells and CSCs. In order to partition bulk AML leukemic populations into NTG and CSC subpopulations, the PDX tumor cells were further incubated with anti-human CD34 and CD38 or candidate AML CSC markers."}, "[17]": {"molecular_target": "T1, full-length mature cynomolgus EMR2 …", "test": "flow cytometry on transduced HEK293T; 293 naive MFI 143", "experimental": "as §1"}, "[18]": {"molecular_target": "T2, full-length mature human EMR2 (residues …)", "test": "flow cytometry on transduced HEK293T; 293 naive MFI 143", "experimental": "as §1"}, "[19]": {"molecular_target": "T3, full-length mature human CD97 (residues …)", "test": "flow cytometry on transduced HEK293T; 293 naive MFI 143", "experimental": "as §1"}, "[20]": {"molecular_target": "T4, human EMR2 as naturally expressed on …", "test": "flow cytometry on AML16-p4 PDX cells, against isotype control", "experimental": "as §2"}, "[21]": {"molecular_target": "T4, human EMR2 as naturally expressed on …", "test": "flow cytometry on AML33p0 cells, against isotype control", "experimental": "as §2"}}, "note": "Where two headings read alike, the source gives them in different places."}
{"binder": "B1", "values": [{"measurement": "% live, FAB-saporin killing assay", "setting": "[1]", "value": 87.7, "unit": "%"}, {"measurement": "% live, FAB-saporin killing assay", "setting": "[2]", "value": 100, "unit": "%"}, {"measurement": "% live, FAB-saporin killing assay", "setting": "[3]", "value": 102, "unit": "%"}, {"measurement": "FC MFI", "setting": "[4]", "value": 85.3}, {"measurement": "FC MFI", "setting": "[5]", "value": 76.2}, {"measurement": "FC MFI", "setting": "[6]", "value": 87.5}]}
{"binder": "B2", "values": [{"measurement": "% live, FAB-saporin killing assay", "setting": "[1]", "value": 92.2, "unit": "%"}, {"measurement": "% live, FAB-saporin killing assay", "setting": "[2]", "value": 101, "unit": "%"}, {"measurement": "% live, FAB-saporin killing assay", "setting": "[3]", "value": 99.1, "unit": "%"}, {"measurement": "FC MFI", "setting": "[7]", "value": 72.5}, {"measurement": "FC MFI", "setting": "[8]", "value": 5080}, {"measurement": "FC MFI", "setting": "[9]", "value": 74.2}]}
{"binder": "B3", "values": [{"measurement": "ΔgMFI", "setting": "[10]", "value": 547}, {"measurement": "ΔgMFI", "setting": "[11]", "value": 475}, {"measurement": "% live, FAB-saporin killing assay", "setting": "[12]", "value": 27.8, "unit": "%"}, {"measurement": "% live, FAB-saporin killing assay", "setting": "[13]", "value": 15.6, "unit": "%"}, {"measurement": "% live, FAB-saporin killing assay", "setting": "[14]", "value": 89, "unit": "%"}, {"measurement": "ΔgMFI", "setting": "[15]", "value": 1610}, {"measurement": "ΔgMFI", "setting": "[16]", "value": 2000}, {"measurement": "FC MFI", "setting": "[17]", "value": 38700}, {"measurement": "FC MFI", "setting": "[18]", "value": 36600}, {"measurement": "FC MFI", "setting": "[19]", "value": 132}, {"measurement": "ΔgMFI", "setting": "[20]", "value": 898}, {"measurement": "ΔgMFI", "setting": "[21]", "value": 457}]}
